Measured values: patent publication US20170253670A1 (Hoffmann-La Roche, published 2017)

Key:
[1] = molecular target: T1, cyno FolR1 on transiently transfected HEK cells (cynomolgus); test: flow cytometry on HEK cells transiently transfected with cyno FolR1, fluorescently labeled anti-human secondary antibody
T1 construct: whole, on cells; also called cyFolR1
Description: Cross-reactivity of the FolR1 antibodies to cyno FolR1 was addressed on HEK cells transiently transfected with cyFolR1 by flow cytometry. The antibodies were detected with a fluorescently labeled anti-human secondary antibody.
Target cells as indicated were harvested with Cell Dissociation Buffer, washed with PBS and resuspended in FACS buffer. The antibody staining was performed in a 96well round bottom plate. Therefore 200′000 cells were seeded per well. The plate was centrifuged for 4 min at 400 g and the supernatant was removed. The test antibodies were diluted in FACS buffer and 20 μl of the antibody solution were added to the cells for 30 min at 4° C.

[2] = molecular target: human FolR1 on cells (HeLa, SKOV3, HT-29, transfected HEK) (human, UniProt P15328 25-234); test: cell-based or functional assay
Chain of human FolR1 on cells (HeLa, SKOV3, HT-29, transfected HEK) (P15328 25-234): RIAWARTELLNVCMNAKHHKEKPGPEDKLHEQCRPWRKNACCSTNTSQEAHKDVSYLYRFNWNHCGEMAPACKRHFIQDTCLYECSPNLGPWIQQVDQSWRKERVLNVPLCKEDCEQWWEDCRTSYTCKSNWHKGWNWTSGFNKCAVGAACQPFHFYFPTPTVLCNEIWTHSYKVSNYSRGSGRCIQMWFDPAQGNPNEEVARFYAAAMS

[3] = molecular target: T2, MUC1 SEA-avi-His, biotinylated (human, biotin on avi tag); test: SPR (ProteOn XPR36), biotinylated MUC1 on NLC chip, TCB as analyte
T2 construct: E. coli derived; also called MUC1 antigen; SEA domain of human MUC1
T2 chain: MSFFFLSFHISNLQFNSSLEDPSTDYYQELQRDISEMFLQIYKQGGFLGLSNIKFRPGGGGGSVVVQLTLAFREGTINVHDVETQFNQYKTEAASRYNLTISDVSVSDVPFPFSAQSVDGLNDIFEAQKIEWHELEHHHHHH
Description: Binding of the produced MUC1-specific TCBs was measured by surface plasmon resonance using a ProteOn XPR36 instrument (Biorad) at 25° C. Biotinylated MUC1 antigen and an unrelated biotinylated antigen were immobilized on NLC chips by neutravidin capture. Immobilization of the antigens was performed as described before. […] Buffer (PBST) was injected along the sixth channel to provide an “in-line” blank for referencing.
Regeneration was performed in horizontal orientation using 10 mM Glycine, pH 1.5 at a flow rate of 100 ul/min for a contact time of 30 s.

B1: 21A5 IgG (antibody, V domains shown)
VH: not shown
VL: QAVVTQEPSLTVSPGGTVTLTCGSSTGAVTTSNYANWVQEKPGQAFRGLIGGTNKRAPGTPARFSGSLLGGKAALTLSGAQPEDEAEYYCALWYSNLWVFGGGTKLTVL
notes: human IgG1
EC50 (read off the curve) [1]: ~6 µg/mL

B2: 16D5 IgG (antibody, V domains shown)
VH: not shown
VL: QAVVTQEPSLTVSPGGTVTLTCGSSTGAVTTSNYANWVQEKPGQAFRGLIGGTNKRAPGTPARFSGSLLGGKAALTLSGAQPEDEAEYYCALWYSNLWVFGGGTKLTVL
notes: human IgG1
EC50 (read off the curve) [1]: ~7 µg/mL

B3: Mov19 FolR1 TCB 2+1 inverted (bispecific antibody)
chain 1: not shown
chain 2: QVQLQQSGAELVKPGASVKISCKASGYSFTGYFMNWVKQSHGKSLEWIGRIHPYDGDTFYNQNFKDKATLTVDKSSNTAHMELLSLTSEDFAVYYCTRYDGSRAMDYWGQGTTVTVSSASTKGPSVFPLAPSSKSTSGGTAALGCLVKDYFPEPVTVSWNSGALTSGVHTFPAVLQSSGLYSLSSVVTVPSSSLGTQTYICNVNHKPSNTKVDKKVEPKSCDKTHTCPPCPAPEAAGGPSVFLFPPKPKDTLMISRTPEVTCVVVDVSHEDPEVKFNWYVDGVEVHNAKTKPREEQYNSTYRVVSVLTVLHQDWLNGKEYKCKVSNKALGAPIEKTISKAKGQPREPQVCTLPPSRDELTKNQVSLSCAVKGFYPSDIAVEWESNGQPENNYKTTPPVLDSDGSFFLVSKLTVDKSRWQQGNVFSCSVMHEALHNHYTQKSLSLSPGK
chain 3: DIELTQSPASLAVSLGQRAIISCKASQSVSFAGTSLMHWYHQKPGQQPKLLIYRASNLEAGVPTRFSGSGSKTDFTLNIHPVEEEDAATYYCQQSREYPYTFGGGTKLEIKRTVAAPSVFIFPPSDEQLKSGTASVVCLLNNFYPREAKVQWKVDNALQSGNSQESVTEQDSKDSTYSLSSTLTLSKADYEKHKVYACEVTHQGLSSPVTKSFNRGEC
EC50 killing 24 h, SKov-3 [2]: 0.75 pM
EC50 killing 48 h, SKov-3 [2]: 0.05 pM

B4: 58D6 MUC1-specific CLC TCB (bispecific antibody)
heavy 1: not shown
heavy 2: not shown
light: QAVVTQEPSLTVSPGGTVTLTCGSSTGAVTTSNYANWVQEKPGQAFRGLIGGTNKRAPGTPARFSGSLLGGKAALTLSGAQPEDEAEYYCALWYSNLWVFGGGTKLTVLRTQPKAAPSVTLFPPSSEELQANKATLVCLISDFYPGAVTVAWKADSSPVKAGVETTTPSKQSNNKYAASSYLSLTPEQWKSHRSYSCQVTHEGSTVEKTVAPTECS
notes: also called 58D6 TCB
binding result [3]: binds

B5: 110A5 MUC1-specific CLC TCB (bispecific antibody)
heavy 1: not shown
heavy 2: not shown
light: QAVVTQEPSLTVSPGGTVTLTCGSSTGAVTTSNYANWVQEKPGQAFRGLIGGTNKRAPGTPARFSGSLLGGKAALTLSGAQPEDEAEYYCALWYSNLWVFGGGTKLTVLRTQPKAAPSVTLFPPSSEELQANKATLVCLISDFYPGAVTVAWKADSSPVKAGVETTTPSKQSNNKYAASSYLSLTPEQWKSHRSYSCQVTHEGSTVEKTVAPTECS
notes: also called 110A5 TCB
binding result [3]: binds
